Results reported in PMC8857481.

Target: FLAG-METTL5-G61D (human) (UniProt Q9NRN9)
Test: co-IP; anti-FLAG M2 beads in clarified lysate of transfected HeLa cells, 1 h at 4 °C; 50 mM Tris pH 7.4, 150 mM NaCl, 10% glycerol, 1.5 mM MgCl2, 0.5 mM EDTA, 0.2% NP-40, 1 mM DTT; three washes; Western blot with anti-FLAG and anti-TRMT112

Chain of UniProt Q9NRN9 (Q9NRN9 whole entry G61D): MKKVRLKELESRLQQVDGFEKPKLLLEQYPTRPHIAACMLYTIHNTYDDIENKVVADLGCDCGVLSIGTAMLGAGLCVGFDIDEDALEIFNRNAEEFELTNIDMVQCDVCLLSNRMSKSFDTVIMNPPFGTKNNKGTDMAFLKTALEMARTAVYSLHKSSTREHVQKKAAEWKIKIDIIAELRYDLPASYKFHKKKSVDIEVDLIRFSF

TRMT112 bound relative to that bound to FLAG-METTL5-WT: 5 to 15%
B1: TRMT112 (natural protein)
chain: MKLLTHNLLSSHVRGVGSRGFPLRLQATEVRICPVEFNPNFVARMIPKVEWSAFLEAADNLRLIQVPKGPVEGYEENEEFLRTMHHLLLEVEVIEGTLQCPESGRMFPISRGIPNMLLSEEETES
